Values quoted from earlier work, collected in PMC5401657.

Target: integrin αvβ3 (Homo sapiens) (UniProt P06756)
Test: SPR

Sequence of UniProt P06756 (P06756 31-992, chain 1 of 2): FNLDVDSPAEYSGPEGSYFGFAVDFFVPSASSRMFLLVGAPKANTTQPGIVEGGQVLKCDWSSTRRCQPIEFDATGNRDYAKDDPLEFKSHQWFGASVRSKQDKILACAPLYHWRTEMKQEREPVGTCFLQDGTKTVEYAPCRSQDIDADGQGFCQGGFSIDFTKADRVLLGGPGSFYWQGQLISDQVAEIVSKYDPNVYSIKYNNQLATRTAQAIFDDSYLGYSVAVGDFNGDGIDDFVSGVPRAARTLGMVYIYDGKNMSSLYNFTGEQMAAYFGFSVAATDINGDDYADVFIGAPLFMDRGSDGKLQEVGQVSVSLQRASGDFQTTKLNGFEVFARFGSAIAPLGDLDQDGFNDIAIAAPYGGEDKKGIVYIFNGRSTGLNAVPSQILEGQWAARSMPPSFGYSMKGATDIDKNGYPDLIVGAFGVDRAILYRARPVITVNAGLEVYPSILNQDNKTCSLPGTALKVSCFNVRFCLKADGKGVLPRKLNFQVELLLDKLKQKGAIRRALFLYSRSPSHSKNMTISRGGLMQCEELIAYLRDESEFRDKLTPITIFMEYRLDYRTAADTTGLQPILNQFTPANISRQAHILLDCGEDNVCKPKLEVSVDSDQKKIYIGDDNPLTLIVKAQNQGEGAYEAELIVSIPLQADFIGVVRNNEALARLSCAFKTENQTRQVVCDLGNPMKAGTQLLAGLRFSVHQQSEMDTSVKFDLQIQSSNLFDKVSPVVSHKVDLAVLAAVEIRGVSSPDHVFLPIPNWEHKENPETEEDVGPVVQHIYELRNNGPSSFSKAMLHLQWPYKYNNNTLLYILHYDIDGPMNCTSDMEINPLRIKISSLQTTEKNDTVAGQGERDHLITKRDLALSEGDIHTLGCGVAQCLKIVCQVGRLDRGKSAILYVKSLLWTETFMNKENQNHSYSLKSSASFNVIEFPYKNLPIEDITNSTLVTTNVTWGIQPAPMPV
Sequence of UniProt P06756 (P05106 27-718, chain 2 of 2, further chain): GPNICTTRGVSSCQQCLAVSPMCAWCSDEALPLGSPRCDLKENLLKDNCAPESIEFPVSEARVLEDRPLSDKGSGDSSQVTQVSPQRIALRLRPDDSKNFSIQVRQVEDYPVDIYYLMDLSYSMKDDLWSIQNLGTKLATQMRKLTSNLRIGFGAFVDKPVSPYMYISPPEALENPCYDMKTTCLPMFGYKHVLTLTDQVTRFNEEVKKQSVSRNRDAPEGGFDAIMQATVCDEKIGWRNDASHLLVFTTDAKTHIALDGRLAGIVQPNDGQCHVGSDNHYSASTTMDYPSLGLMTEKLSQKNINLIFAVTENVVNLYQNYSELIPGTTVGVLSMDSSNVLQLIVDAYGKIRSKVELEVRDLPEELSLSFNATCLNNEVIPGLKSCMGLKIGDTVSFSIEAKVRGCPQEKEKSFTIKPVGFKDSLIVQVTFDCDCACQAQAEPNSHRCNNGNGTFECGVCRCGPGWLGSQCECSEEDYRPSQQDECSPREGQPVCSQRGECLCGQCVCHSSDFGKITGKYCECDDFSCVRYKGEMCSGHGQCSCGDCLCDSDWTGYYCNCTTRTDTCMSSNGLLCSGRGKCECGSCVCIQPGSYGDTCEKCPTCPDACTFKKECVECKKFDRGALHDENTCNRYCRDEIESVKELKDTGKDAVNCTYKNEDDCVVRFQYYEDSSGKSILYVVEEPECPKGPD

Kd: 500 nM
Substance: IGF1 (from UniProt P05019)
